Measured values from the supplement of paper PMC9732359.
± gives the uncertainty stated by the source.

Test: protein stability index of a GFP-peptide fusion (yeast GPS) (PSI 1-4); higher = more stable; sorted into four equal gates, so the index is relative within each strain
Procedure, shortened: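 Each library plasmid carries Cherry plus GFP with a tiled 17-residue yeast protein peptide fused downstream, and the pooled library was carried in yeast. Mid-log cultures in leucine-free medium were sorted into four equal gates by GFP/Cherry ratio. Reads from Illumina sequencing of PCR-amplified plasmids from each gate were assigned to strains by barcodes. Per peptide, the protein stability index was computed as the summed products of gate read frequency and gate number.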

| Sequence | protein stability index (doa10∆) | protein stability index (pdr5∆) | protein stability index (san1∆) | protein stability index (ubr1∆) |
| --- | --- | --- | --- | --- |
| RSRMLPTITLDDVYRPA [SNF5] | 3.12 ± 0.081 | 3.43 ± 0.085 | 3.04 ± 0.075 | 3.06 ± 0.077 |
| RSTDVWYEASTWIQQFK [ARP7] | – | 3.64 ± 0.13 | 2.45 ± 0.28 | 2.97 ± 0.13 |
| RTFRLNECVCTPYNADF [RPO31] | 2.25 ± 0.045 | 2.4 ± 0.049 | 2.77 ± 0.054 | 2.28 ± 0.065 |
| RTKTPGPGGQAALRALA [RPS14B] | 2.39 ± 0.077 | 2.55 ± 0.11 | 2.23 ± 0.1 | 2.46 ± 0.08 |
| RTMDDIKDSVREVGTKF [ECM29] | 3.35 ± 0.11 | 3.47 ± 0.11 | 3.27 ± 0.088 | 3.29 ± 0.072 |
| RTPVPSTLMPGGVDVGP [SNF5] | – | 3 ± 0.15 | 2.73 ± 0.17 | – |
| RVADEDANLNDLPETGF [IRR1] | 3 ± 0.095 | 3.22 ± 0.11 | 3.44 ± 0.078 | 3.13 ± 0.089 |
| RVARRNAARKAEASGEA [RPS9A] | 3.32 ± 0.13 | 3.44 ± 0.17 | – | 3 ± 0.098 |
| RVFRTRFQDGTSVVSIM [SMC2] | 2.07 ± 0.099 | 1.3 ± 0.1 | – | 2.31 ± 0.087 |
| RVHDQPLIWQLLQSSII [POP3] | 1.43 ± 0.062 | 1.78 ± 0.07 | 1.66 ± 0.11 | 1.7 ± 0.028 |
| RVIKDFKKLNSKNMSKS [YMR153W/NUP53] | 1.95 ± 0.16 | – | 2.64 ± 0.21 | – |
| RVKDPQWLIMLGICTHL [RIP1] | 2.62 ± 0.064 | 2.48 ± 0.055 | 2.36 ± 0.075 | 2.91 ± 0.045 |
| RVKIANTSAATVHTATS [SSN2] | 2.86 ± 0.1 | 2.65 ± 0.051 | 2.39 ± 0.071 | 2.52 ± 0.094 |
| RVLTQDGRVYIGQLMAF [SMB1] | 3.48 ± 0.098 | 3.26 ± 0.083 | 2.63 ± 0.09 | 3.05 ± 0.041 |
| RVNLSENTPEPDLPALE [SMC4] | 2.26 ± 0.091 | 2.32 ± 0.074 | 3.1 ± 0.086 | 2.83 ± 0.11 |
| RVWAEYATKRQEAIQQN [PRP8] | 2.37 ± 0.15 | 2.56 ± 0.1 | 2.61 ± 0.1 | 2.2 ± 0.096 |
| RYADAGNIDTKNNILGS [RRP43] | 3.31 ± 0.062 | 3.06 ± 0.05 | 3.12 ± 0.039 | 3.04 ± 0.049 |
| RYIWRSLKDLSSLRNQE [RPN3] | 2.77 ± 0.14 | – | 2.85 ± 0.094 | – |
| RYKFPGQQKIILSKKWG [RPL10] | 2.69 ± 0.22 | – | – | 2.29 ± 0.21 |
| RYKPGTVALREIRRFQK [HHT1] | 3.19 ± 0.11 | 2.97 ± 0.091 | 3.07 ± 0.065 | 3.07 ± 0.078 |
| RYSRQFINNVLSNPSNQ [GRR1] | 2.28 ± 0.08 | 2.45 ± 0.082 | 1.91 ± 0.1 | 2.07 ± 0.076 |
| SAAGNKAIPTFSFGKPF [YIL149C/MLP2] | 2.73 ± 0.046 | 2.86 ± 0.055 | 2.96 ± 0.045 | 2.96 ± 0.034 |
| SAAKASQSRSAKAGLTF [HTA1] | 3.06 ± 0.081 | 2.96 ± 0.084 | 2.98 ± 0.042 | 3.05 ± 0.034 |
| SAIDVLDPLTKDPVDFV [RPN2] | 3.21 ± 0.088 | 3.29 ± 0.076 | 3.15 ± 0.074 | 3.12 ± 0.096 |
| SAKMILLSDPTITIKSY [PRP8] | 2.23 ± 0.078 | 1.91 ± 0.09 | 3.1 ± 0.099 | 2.92 ± 0.069 |
| SALIENNLFRIIAELSF [YJL039C/NUP192] | 2.22 ± 0.066 | 2.34 ± 0.056 | 2.04 ± 0.074 | 2.53 ± 0.052 |
| SANVELFKRDCNQMENL [YCS4] | 3.38 ± 0.1 | 3.35 ± 0.09 | 3.4 ± 0.062 | 3.35 ± 0.074 |
| SAPAPAAAAPAPVAAAA [FAS2] | 3.24 ± 0.24 | 3.21 ± 0.28 | 2.49 ± 0.13 | 3.28 ± 0.29 |
